B1: STEAP1 (parent)
chain: LWKMKPRRNLEEDDYLHKDTGETS
B2: TMEM106C (parent)
chain: SEQLVNFTGKAEMGGPFSYVYFFC

Variants of: B1
Assay: protein stability index of a GFP-peptide fusion (GPS, HEK-293T) (PSI 1-6); higher = more stable
Settings: c terminus: a fixed tail appended
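Further: lentivirally expressed fusions sorted by FACS into six bins by GFP to DsRed ratio, PSI derived from sequencing read proportions per bin multiplied by bin number.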

| Variant | protein stability index |
| --- | --- |
| LWKMKPRRNLEEDDYLHKDTWETS [G21W] | 3.15 |
| LWKMKPRRNLEEDDYLHKDTVETS [G21V] | 3.64 |
| LWKMKPRRNLEEDDYLHKDTRETS [G21R] | 3.89 |
| LWKMKPRRNLEEDDYLHKDTLETS [G21L] | 3.91 |
| LWKMKPRRNLEEDDYLHKDTTETS [G21T] | 4.49 |
| LWKMKPRRNLEEDDYLHKDTQETS [G21Q] | 4.33 |
| LWKMKPRRNLEEDDYLHKDTSETS [G21S] | 4.59 |
| LWKMKPRRNLEEDDYLHKDTYETS [G21Y] | 4.08 |
| LWKMKPRRNLEEDDYLHKDTNETS [G21N] | 4.36 |
| LWKMKPRRNLEEDDYLHKDTKETS [G21K] | 4.26 |
| LWKMKPRRNLEEDDYLHKDTPETS [G21P] | 4.77 |
| LWKMKPRRNLEEDDYLHKDTMETS [G21M] | 3.93 |
| LWKMKPRRNLEEDDYLHKDTGFTS [E22F] | 3.83 |
| LWKMKPRRNLEEDDYLHKDTGVTS [E22V] | 3.86 |
| LWKMKPRRNLEEDDYLHKDTGNTS [E22N] | 4.22 |
| LWKMKPRRNLEEDDYLHKDTGKTS [E22K] | 3.83 |
| LWKMKPRRNLEEDDYLHKDTGATS [E22A] | 3.92 |
| LWKMKPRRNLEEDDYLHKDTGGTS [E22G] | 4.37 |
| LWKMKPRRNLEEDDYLHKDTGQTS [E22Q] | 4.11 |
| LWKMKPRRNLEEDDYLHKDTGLTS [E22L] | 4.13 |
| LWKMKPRRNLEEDDYLHKDTGSTS [E22S] | 4.08 |
| LWKMKPRRNLEEDDYLHKDTGMTS [E22M] | 3.85 |
| LWKMKPRRNLEEDDYLHKDTGRTS [E22R] | 3.69 |

| Variant | protein stability index |
| --- | --- |
| LWKMKPRRNLEEDDYLHKDTGDTS [E22D] | 4.47 |
| LWKMKPRRNLEEDDYLHKDTGCTS [E22C] | 4 |
| LWKMKPRRNLEEDDYLHKDTGWTS [E22W] | 2.56 |
| LWKMKPRRNLEEDDYLHKDTGHTS [E22H] | 3.89 |
| LWKMKPRRNLEEDDYLHKDTGYTS [E22Y] | 3.46 |
| LWKMKPRRNLEEDDYLHKDTGITS [E22I] | 3.73 |
| LWKMKPRRNLEEDDYLHKDTGPTS [E22P] | 3.98 |
| LWKMKPRRNLEEDDYLHKDTGTTS [E22T] | 3.7 |
| LWKMKPRRNLEEDDYLHKDTGETH [S24H] | 4.31 |
| LWKMKPRRNLEEDDYLHKDTGETV [S24V] | 4.38 |
| LWKMKPRRNLEEDDYLHKDTGETY [S24Y] | 4.11 |
| LWKMKPRRNLEEDDYLHKDTGETM [S24M] | 4.16 |
| LWKMKPRRNLEEDDYLHKDTGETK [S24K] | 4.47 |
| LWKMKPRRNLEEDDYLHKDTGETD [S24D] | 4.65 |
| LWKMKPRRNLEEDDYLHKDTGETC [S24C] | 3.89 |
| LWKMKPRRNLEEDDYLHKDTGETE [S24E] | 4.52 |
| LWKMKPRRNLEEDDYLHKDTGETA [S24A] | 4.61 |
| LWKMKPRRNLEEDDYLHKDTGETR [S24R] | 3.97 |
| LWKMKPRRNLEEDDYLHKDTGETP [S24P] | 4.3 |
| LWKMKPRRNLEEDDYLHKDTGETQ [S24Q] | 3.85 |
| LWKMKPRRNLEEDDYLHKDTGETI [S24I] | 3.96 |
| LWKMKPRRNLEEDDYLHKDTGETL [S24L] | 4.1 |
| LWKMKPRRNLEEDDYLHKDTGETT [S24T] | 4.6 |

| Variant | protein stability index |
| --- | --- |
| LWKMKPRRNLEEDDYLHKDTGETN [S24N] | 4.72 |
| LWKMKPRRNLEEDDYLHKDTGETG [S24G] | 4.46 |
| LWKMKPRRNLEEDDYLHKDTGETW [S24W] | 3.5 |
| LWKMKPRRNLEEDDYLHKDTGETF [S24F] | 4.22 |
| LWKMKPRRNLEEDDYLHKDTGENS [T23N] | 4.37 |
| LWKMKPRRNLEEDDYLHKDTGEYS [T23Y] | 4.02 |
| LWKMKPRRNLEEDDYLHKDTGEQS [T23Q] | 4.52 |
| LWKMKPRRNLEEDDYLHKDTGERS [T23R] | 4.48 |
| LWKMKPRRNLEEDDYLHKDTGELS [T23L] | 4.12 |
| LWKMKPRRNLEEDDYLHKDTGESS [T23S] | 4.77 |
| LWKMKPRRNLEEDDYLHKDTGEDS [T23D] | 4.59 |
| LWKMKPRRNLEEDDYLHKDTGEPS [T23P] | 4.92 |
| LWKMKPRRNLEEDDYLHKDTGEAS [T23A] | 4.63 |
| LWKMKPRRNLEEDDYLHKDTGEVS [T23V] | 4.12 |
| LWKMKPRRNLEEDDYLHKDTGEHS [T23H] | 4.4 |
| LWKMKPRRNLEEDDYLHKDTGEES [T23E] | 5.03 |
| LWKMKPRRNLEEDDYLHKDTGEKS [T23K] | 4.73 |
| LWKMKPRRNLEEDDYLHKDTGEIS [T23I] | 3.53 |
| LWKMKPRRNLEEDDYLHKDTGEMS [T23M] | 3.99 |
| LWKMKPRRNLEEDDYLHKDTGEWS [T23W] | 3.54 |
| LWKMKPRRNLEEDDYLHKDTGECS [T23C] | 4.05 |
| LWKMKPRRNLEEDDYLHKDTGEFS [T23F] | 3.92 |
| LWKMKPRRNLEEDDYLHKDTGEGS [T23G] | 4.26 |

Variants of: B2
Assay: as above
Settings: c terminus: a fixed tail appended

| Variant | protein stability index |
| --- | --- |
| SRQLVNFTGKAEMGGPFSYVYFFC [E2R] | 2.85 |
| SSQLVNFTGKAEMGGPFSYVYFFC [E2S] | 1.47 |
| SNQLVNFTGKAEMGGPFSYVYFFC [E2N] | 3.28 |
| STQLVNFTGKAEMGGPFSYVYFFC [E2T] | 2.64 |
| SKQLVNFTGKAEMGGPFSYVYFFC [E2K] | 2.29 |
| SIQLVNFTGKAEMGGPFSYVYFFC [E2I] | 3 |
| SMQLVNFTGKAEMGGPFSYVYFFC [E2M] | 3.48 |
| SQQLVNFTGKAEMGGPFSYVYFFC [E2Q] | 2.65 |
| SHQLVNFTGKAEMGGPFSYVYFFC [E2H] | 2.8 |
| SLQLVNFTGKAEMGGPFSYVYFFC [E2L] | 1.91 |
| SYQLVNFTGKAEMGGPFSYVYFFC [E2Y] | 2 |
| SDQLVNFTGKAEMGGPFSYVYFFC [E2D] | 3.75 |
| SAQLVNFTGKAEMGGPFSYVYFFC [E2A] | 2.44 |
| SGQLVNFTGKAEMGGPFSYVYFFC [E2G] | 2.88 |
| SFQLVNFTGKAEMGGPFSYVYFFC [E2F] | 3.3 |
| SWQLVNFTGKAEMGGPFSYVYFFC [E2W] | 2.95 |
| SVQLVNFTGKAEMGGPFSYVYFFC [E2V] | 2.69 |
| SPQLVNFTGKAEMGGPFSYVYFFC [E2P] | 3.82 |
| SCQLVNFTGKAEMGGPFSYVYFFC [E2C] | 2.18 |
| SEQLENFTGKAEMGGPFSYVYFFC [V5E] | 1.79 |
| SEQLHNFTGKAEMGGPFSYVYFFC [V5H] | 2.52 |
| SEQLFNFTGKAEMGGPFSYVYFFC [V5F] | 2.76 |
| SEQLDNFTGKAEMGGPFSYVYFFC [V5D] | 3.94 |
| SEQLLNFTGKAEMGGPFSYVYFFC [V5L] | 3.05 |
| SEQLNNFTGKAEMGGPFSYVYFFC [V5N] | 2.58 |

Source: the supplement of paper PMC10567573
